Reference: publication PMC6163455 (Biomolecules, 2018)

Key:
[1] = tested on: CHO-K1/SpyC_C-BLA cells; experiment: live-cell confocal microscopy of split β-lactamase complementation; type: cell-based, Chinese hamster; conditions: for cytosolic delivery and β-lactamase complementation signal by confocal microscopy: CHO-K1/SpyC_C-BLA cells, 4 µM protein, live cell confocal microscopy, Figure 3c–f
Text: (a) Live-cell functional uptake can be measured when N-terminal β-lactamase (N-BLA), fused to a CPP sequence, penetrates the cell membrane to complement C-terminal β-lactamase protein (C-BLA) in the cytosol (step i). Expression of the split β-lactamase moieties as fusions with either SpyTag (CPP_N-BLA_SpyT) or SpyCatcher (SpyC_C-BLA) facilitates rapid formation of functional β-lactamase proteins through SpyT/SpyC ligation inside the cells (step ii). This internalization is detected after addition of dye substrate (step iii) through cleavage of cytosol-retained CCF2 (step iv), which is measured via a change in fluorescence signal from green (520 nm) to blue (450 nm). (b) Internalization of CPP_N-BLA_SpyT and β-lactamase complementation in CHO-K1/SpyC_C-BLA cells is dose-dependent, measured by CCF2 cleavage (increase in % blue viable cells as estimated by flow cytometry). […] Error bars represent standard error of the mean of two independent experiments (duplicate samples). […] Bar scale is 50 µm.
(§1) Successful complementation of β-lactamase was dose- and CPP-dependent, with a limit of detection of ≤1 µM of CPP_N-BLA_SpyT. β-Lactamase complementation and N-BLA fragment internalization was visually confirmed using live cell confocal microscopy in CHO-K1/SpyC_C-BLA cells treated with Phylomer CPP_N-BLA_SpyT proteins (Figure 3c–f). The fluorescence signal is detectable as early as 30 min (Figure S2a). Signal conversion over time was confirmed by imaging cells treated with 1746c27_N-BLA_SpyT at sequential time points (Figure S2b,c), thus completing validation of the split assay system.
Cells were seeded (CHO-K1, 37,500 cells/mL; T47D 37,500 cells/mL) onto 4-well ibiTreat chamber slides (Thermo Fisher Scientific) and incubated for 48 h at 37 °C, 5% CO2. The medium was removed and replaced with medium containing SpyC_BLA/CPP_SpyT conjugated or unconjugated SpyC_BLA proteins and cells were incubated for 2 h at 37 °C, 5% CO2. After incubation, the cells were washed to remove any SpyC_BLA protein that had not internalized, loaded with substrate CCF2-AM (2 µM final concentration in media containing 1% FCS), and incubated for 1 h at room temperature. Live cells were visualized through confocal microscopy. Images were collected using a Nikon C2 Confocal Microscope through a 40× differential interference contrast (DIC) objective after excitation by a 408 nm laser. Bar scales in images represent 50 µm or 14.6 µm (zoom magnification 3.4×).
Figure S2. Split β-lactamase assay time course.
Live cell confocal microscopy imaging the CPP-mediated cytosolic internalization of 1746c27_N-BLA_SpyT (8 µM) in CHO-K1/C-BLA cells at (a) 30 min, (b) 60 min, and (c) 120 min after addition of CCF2-AM dye. The β-lactamase complementation signal is detectable as early as 30 min and continues to convert over time. Repeated excitation over time results in photobleaching of the converted fluorescence resonance energy transfer (FRET) substrate. Bar scale is 50 µm. […]
(also on this page, place not known: De ad ( B) ( D) ( E) 1746c27_N-BLA_SpyT + CHO-K1/SpyC_C-BLA) […]

[2] = tested on: CHO-K1/SpyC_C-BLA cells; experiment: split β-lactamase cytosolic delivery assay (CCF2-AM, flow cytometry); type: cell-based, Chinese hamster; conditions: CHO-K1/SpyC_C-BLA stable cells, blue fluorescent cells after 1 h, two independent experiments, duplicate samples, Figure 3b
Text: SpyT/SpyC ligation enables specific covalent linkage of the split components when mixed together, thus reactivating β-lactamase activity. SpyC_C-BLA was selected for mammalian expression in stable cell lines, and N-BLA_SpyT was selected for CPP incorporation onto its N-terminus (CPP_N-BLA_SpyT). Constitutively expressed SpyC_C-BLA in the cytoplasm of stable cell lines can be complemented by CPP-delivered N-BLA_SpyT, thus forming functional β-lactamase.
In brief, CPP sequences are made as fusions to N-BLA_SpyT (CPP_N-BLA_SpyT, Figure 3a, step i). […] Cell penetrating peptide-dependent β-lactamase complementation and activity is detected by cleavage of the CCF2 substrate (Figure 3a, step iv). As in the full-length β-lactamase internalization assay, this reaction is measured as a shift in fluorescent signal from green to blue. […]
as §1, with “Signal conversion over time was confirmed by imaging cells treated with 1746c27_N-BLA_SpyT at sequential time points (Figure S2b,c), thus completing validation of the split assay system.” left out

Row | Molecule | cytosolic delivery and β-lactamase complementation signal by confocal microscopy [1] | β-lactamase complementation signal (% blue viable cells) [2] | earliest time at which β-lactamase complementation signal is detectable ([1]; 8 µM in CHO-K1/C-BLA cells, time after addition of CCF2-AM dye, imaged at 30, 60, 120 min, Figure S2) [min]
1 | N-BLA_SpyT: N-terminal β-lactamase fragment fused to SpyTag; No CPP negative control of split assay (protein) MGHHHHHHGATLEVLFQGPGGSQLHPETLVKVKDAEDQLGARVGYIELDLNSGKILESFRPEERFPMMSTFKVLLCGAVLSRIDAGQEQLGRRIHYSQNDLVEYSPVTEKHLTDGMTVRELCSAAITMSDNTAANLLLTTIGGPKELTAFLHNMGDHVTRLDRWEPELNEAIPNDERDTTMPAAMATTLRKLLTGGGSASGGSGTGATSGAHIVMVDAYKPTKGVDG | minimal evidence of internalization | negligible effect | 
2 | 1746c27_N-BLA_SpyT: phylomer CPP 1746c27 fused to N-terminal β-lactamase fragment and SpyTag (protein, left off: His6, internal (after the CPP, by the printed letters), state not stated, phylomer CPP 1746c27 fused to N-terminal β-lactamase fragment and SpyTag) MASKKKKQPPKPKKPKTQEKKKKQPPKPKRASSGSHHHHHHGTGAGSGHPETLVKVKDAEDQLGARVGYIELDLNSGKILESFRPEERFPMMSTFKVLLCGAVLSRIDAGQEQLGRRIHYSQNDLVEYSPVTEKHLTDGMTVRELCSAAITMSDNTAANLLLTTIGGPKELTAFLHNMGDHVTRLDRWEPELNEAIPNDERDTTTPAAMATTLRKLLTGGGSASGGSGTGATSGAHIVMVDAYKPTKGGTGGS | cytosolic delivery |  | 30
3 | 1746_N-BLA_SpyT: phylomer CPP 1746 fused to N-terminal β-lactamase fragment and SpyTag (protein, left off: His6, internal (after the CPP, by the printed letters), state not stated, phylomer CPP 1746 fused to N-terminal β-lactamase fragment and SpyTag) MASPLKPKKPKTQEKKKKQPPKPKKPKTQEKKKKQPPKPKRASSGSHHHHHHGTGAGSGHPETLVKVKDAEDQLGARVGYIELDLNSGKILESFRPEERFPMMSTFKVLLCGAVLSRIDAGQEQLGRRIHYSQNDLVEYSPVTEKHLTDGMTVRELCSAAITMSDNTAANLLLTTIGGPKELTAFLHNMGDHVTRLDRWEPELNEAIPNDERDTTTPAAMATTLRKLLTGGGSASGGSGTGATSGAHIVMVDAYKPTKGGTGGS | cytosolic delivery |  | 
4 | 0084_N-BLA_SpyT: phylomer CPP 0084 fused to N-terminal β-lactamase fragment and SpyTag (protein, left off: His6, internal (after the CPP, by the printed letters), state not stated, phylomer CPP 0084 fused to N-terminal β-lactamase fragment and SpyTag) MASRKQKSLQTKLAENPPVPRKKRQSRPRWKQWLQKASSGSHHHHHHGTGAGSGHPETLVKVKDAEDQLGARVGYIELDLNSGKILESFRPEERFPMMSTFKVLLCGAVLSRIDAGQEQLGRRIHYSQNDLVEYSPVTEKHLTDGMTVRELCSAAITMSDNTAANLLLTTIGGPKELTAFLHNMGDHVTRLDRWEPELNEAIPNDERDTTTPAAMATTLRKLLTGGGSASGGSGTGATSGAHIVMVDAYKPTKGGTGGS | cytosolic delivery |  | 
